From article PMC7718258

Biological target: Methanocaldococcus jannaschii Bud32 (Methanocaldococcus jannaschii) (UniProt Q58530)
Sequence (Q58530 whole entry): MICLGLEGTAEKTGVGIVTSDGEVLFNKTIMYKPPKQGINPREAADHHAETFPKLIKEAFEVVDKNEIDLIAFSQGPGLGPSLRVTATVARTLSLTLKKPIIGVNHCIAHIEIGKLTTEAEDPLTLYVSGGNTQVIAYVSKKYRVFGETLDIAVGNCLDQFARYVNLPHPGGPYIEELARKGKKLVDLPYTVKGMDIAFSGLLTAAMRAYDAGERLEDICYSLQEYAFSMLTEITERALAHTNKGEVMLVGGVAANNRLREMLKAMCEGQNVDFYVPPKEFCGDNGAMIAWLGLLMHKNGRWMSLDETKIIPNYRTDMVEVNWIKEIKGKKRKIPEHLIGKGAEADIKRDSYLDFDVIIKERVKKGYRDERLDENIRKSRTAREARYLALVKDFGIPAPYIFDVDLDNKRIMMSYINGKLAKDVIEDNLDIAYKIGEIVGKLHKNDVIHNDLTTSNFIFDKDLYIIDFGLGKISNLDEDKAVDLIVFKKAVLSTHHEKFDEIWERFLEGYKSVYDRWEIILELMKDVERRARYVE

B1: Methanocaldococcus jannaschii Cgi121 (natural protein)
chain: MIIRGIRGARINNEIFNLGLKFQILNADVVATKKHVLHAINQAKTKKPIAKSFWMEILVRASGQRQIHEAIKIIGAKDGNVCLICEDEETFRKIYELIGGEIDDSVLEINEDKERLIREIFKIRGFGNVVERVLEKIALIELKKE
- ATPase activity of mjBud32 (ADP Glo assay), potentiation by mjCgi121: 10 fold
